We go through one substance from patent US11137400.

Where a chain is given by its changes, count along the chain named.

Data set [1] deals with T1, Affinity-purified GST-tagged wild type (WT) hXBP1s.
T1 sequence: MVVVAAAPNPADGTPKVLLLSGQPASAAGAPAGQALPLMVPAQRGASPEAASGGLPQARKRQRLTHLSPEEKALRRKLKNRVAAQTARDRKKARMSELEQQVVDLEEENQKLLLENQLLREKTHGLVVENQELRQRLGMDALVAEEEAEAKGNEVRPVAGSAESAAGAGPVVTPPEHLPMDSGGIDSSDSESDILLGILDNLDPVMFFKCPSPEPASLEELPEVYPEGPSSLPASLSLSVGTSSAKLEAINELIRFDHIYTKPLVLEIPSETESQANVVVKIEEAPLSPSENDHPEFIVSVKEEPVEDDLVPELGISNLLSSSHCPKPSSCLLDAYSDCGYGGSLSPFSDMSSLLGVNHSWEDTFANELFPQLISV

For data set [2], the system named is T2, Affinity-purified GST-tagged hXBP1s S288A mutant.
T2 sequence: T1 sequence with S288A

As to “Active recombinant human JNK2α2 (Millipore)”, the “in vitro kinase assay, phosphorylation in the presence of ^32P (autoradiography)” value in data set [1] is reported as “JNK1, JNK2 or JNK3 was sufficient to directly phosphorylate hXBP1s”; in data set [2], “mutation of Ser288 to A abolished JNKs-mediated phosphorylation of hXBP1s”.
